Measured values reported in article PMC12447786.

Target: Cys SARS2 Nsp1, fluorescein-labelled (SARS-CoV-2) (UniProt P0DTD1)
Assay: fluorescence polarisation

“40S ribosomal subunit purified from rabbit reticulocytes (complex)” showed a Kd of 27 nM.
